The values that follow come from paper PMC5658359, “A potent small-molecule inhibitor of the DCN1-UBC12 interaction that selectively blocks cullin 3 neddylation” (Nature Communications, 2017).

Primed or numbered codes have the meaning given here. Where no end group is shown, it is not given here. [ ]: non-standard residue; d: D form. Ala(benzothiazol-2-yl)′ = not defined here; Phe(2-Cl) = N[C@@H](Cc1ccccc1Cl)C(=O)O; 1Nal = N[C@@H](Cc1cccc2ccccc12)C(=O)O; 2Nal = N[C@@H](Cc1ccc2ccccc2c1)C(=O)O; hPhe = N[C@@H](CCc1ccccc1)C(=O)O

The assay addresses T1, human DCN1 (residues 58–259), N-terminal His6 tag (human, UniProt Q96GG9 58-259).
T1 construct: DCN1 (defective in cullin neddylation 1), human, residues 58-259, cloned into pDEST17; residues 60-251 are visible in PDB 5UFI; also called defective in cullin neddylation 1; source: Rosetta2 cells, purified (Ni-NTA, Superdex 75); not shown: His6, N-terminal, kept
The experiment in a line: fluorescence polarisation; competitive: peptide added to pre-incubated DCN1 (50 nM) and FAM-labelled small-molecule probe 46 (5 nM); 100 mM phosphate buffer pH 6.5, 0.02% Tween-20, 2% DMSO; room temperature, 30 min; Ki calculated from IC50. The conditions noted are these: both partners purified.

T1 sequence (Q96GG9 58-259): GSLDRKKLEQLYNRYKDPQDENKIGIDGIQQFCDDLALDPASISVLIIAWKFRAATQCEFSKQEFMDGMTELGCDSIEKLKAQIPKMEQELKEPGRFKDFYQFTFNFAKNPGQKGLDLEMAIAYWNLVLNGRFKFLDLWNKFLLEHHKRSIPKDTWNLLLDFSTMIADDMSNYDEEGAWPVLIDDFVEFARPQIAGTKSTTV

B1: UBC12 peptide 4 (peptide, UniProt P61081 1-9, looked up)
peptide: MIKLFSLKQ
notes: Terminal groups surmised Ac-...-NH2; source: synthetic peptide
With B1, the binding result is “binds”.
As to [Ala(5-Cl-benzothiazol-2-yl)]IKL [compound 25 (24 with 5-Cl on the benzothiazol-2-yl)], the “fold less potent than 24” value was 17 fold.

B2: UBC12 peptide 2 (peptide 1 without Lys12) (peptide, UniProt P61081 1-11, looked up)
peptide: MIKLFSLKQQK
notes: UBC12, N-terminal 11 residues (truncation of Lys12 from the 12-residue peptide); Terminal groups surmised Ac-...-NH2; source: synthetic peptide
B2: the binding result was “binds”.

B3: UBC12 peptide 7 (peptide, UniProt P61081 1-6, looked up)
peptide: MIKLFS
notes: UBC12, N-terminal 6 residues (Met1 to Ser6; Leu7 removed from 6); Terminal groups surmised Ac-...-NH2; source: synthetic peptide
In the case of B3, the “fold loss in binding affinity (against 6)” value was 3 fold.

B4: UBC12 seven-residue peptide (6) (peptide, UniProt P61081 1-7, looked up)
peptide: MIKLFSL
notes: UBC12, N-terminal 7 residues (Met1 to Leu7; Lys8 removed from 5); Terminal groups surmised Ac-...-NH2; source: synthetic peptide
With B4, the “fold loss in binding affinity (against 5)” value was 3 fold.
For the molecule [Ala(benzothiazol-2-yl)′]IKL [compound 24 (11 with the phenyl replaced by benzothiazol-2-yl)], the Ki is 150 nM.
[Phe(2-Cl)]IKL [compound 13 (11 with Cl at the ortho position of the phenyl ring)]: the “fold decrease in binding affinity (against 11)” value was 3 fold.
Take [1Nal]IKL [compound 22 (11 with the phenyl replaced by naphthalen-1-yl)]: the Ki was 354000 nM.

B5: UBC12 peptide 5 (peptide, UniProt P61081 1-8, looked up)
peptide: MIKLFSLK
notes: UBC12, N-terminal 8 residues (Met1 to Lys8); Terminal groups surmised Ac-...-NH2; source: synthetic peptide
Consider B5, for which the binding result was “binds”.

B6: UBC12 peptide 8 (peptide, UniProt P61081 1-5, looked up)
peptide: MIKLF
notes: UBC12, N-terminal 5 residues (Met1 to Phe5; Ser6 deleted from 7); Terminal groups surmised Ac-...-NH2; source: synthetic peptide
As to B6, the binding result is “binds”.
Turning to [Ala(6-Cl-benzothiazol-2-yl)]IKL [compound 26 (24 with 6-Cl on the benzothiazol-2-yl)], the “fold more potent than 24” value is 4 fold.
Turning to [hPhe]IKL [compound 12 (tetrapeptide 9 with Met1 replaced by homophenylalanine)], the “fold decrease in binding affinity (reference not named: 9 or 11)” value is 6 fold.

B7: UBC12 peptide 3 (peptide, UniProt P61081 1-10, looked up)
peptide: MIKLFSLKQQ
notes: as for B1
For the molecule B7, the binding result is reported as “binds”.
In the case of [2Nal]IKL [compound 23 (11 with the phenyl replaced by naphthalen-2-yl)], the “fold more potent than 11” value is 11 fold.
Take [Ala(6-isopropyl-benzothiazol-2-yl)]IKL [compound 27 (26 with the 6-Cl replaced by an isopropyl group)]: the Ki was 5 nM.

For orientation: Ki means the dissociation constant of the complex between target and ligand, obtained from inhibition or displacement.
